From patent US20090104205A1 (AstraZeneca / MedImmune, published 2009)

Legend:
[1] = target: T1, C-terminal truncated RSV F protein (secreted, from recombinant baculovirus) (respiratory syncytial virus, UniProt P03420 26-524); experiment: SPR (BIAcore), F protein amine-coupled, Kd = kd/ka
T1 construct: also called immobilized F protein

[2] = target: T1, C-terminal truncated RSV F protein …; experiment: SPR (BIAcore), F protein amine-coupled, Mab injected at 25-300 nM
[3] = target: T2, RSV F protein (native, from RSV virus or RSV infected HEP2 cell lysate) (respiratory syncytial virus, UniProt P03420 26-574); experiment: capture ELISA: RSV infected HEP2 cell lysate captured on Mu1331 antibody; double reciprocal plot of OD vs antibody concentration
T2 construct: In the ELISA the antigen was whatever the Mu1331 anti-F antibody captured from the infected cell lysate; also called RSV F antigen; RSV F glycoprotein
T2 sequence (P03420 26-574): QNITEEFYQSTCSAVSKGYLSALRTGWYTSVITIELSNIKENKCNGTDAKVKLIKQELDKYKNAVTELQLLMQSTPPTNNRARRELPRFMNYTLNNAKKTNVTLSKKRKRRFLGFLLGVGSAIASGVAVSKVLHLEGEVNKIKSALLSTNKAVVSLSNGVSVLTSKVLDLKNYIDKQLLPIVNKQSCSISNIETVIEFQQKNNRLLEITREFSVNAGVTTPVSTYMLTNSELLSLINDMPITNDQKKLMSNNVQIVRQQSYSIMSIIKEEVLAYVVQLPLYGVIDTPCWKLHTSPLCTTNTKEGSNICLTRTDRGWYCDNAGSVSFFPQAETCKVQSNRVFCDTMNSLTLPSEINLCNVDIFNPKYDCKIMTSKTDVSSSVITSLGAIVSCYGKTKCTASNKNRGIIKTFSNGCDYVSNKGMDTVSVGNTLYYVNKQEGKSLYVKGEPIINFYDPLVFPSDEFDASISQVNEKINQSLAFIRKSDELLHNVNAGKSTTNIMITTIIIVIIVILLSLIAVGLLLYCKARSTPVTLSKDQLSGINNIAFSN

T1 sequence (P03420 26-524): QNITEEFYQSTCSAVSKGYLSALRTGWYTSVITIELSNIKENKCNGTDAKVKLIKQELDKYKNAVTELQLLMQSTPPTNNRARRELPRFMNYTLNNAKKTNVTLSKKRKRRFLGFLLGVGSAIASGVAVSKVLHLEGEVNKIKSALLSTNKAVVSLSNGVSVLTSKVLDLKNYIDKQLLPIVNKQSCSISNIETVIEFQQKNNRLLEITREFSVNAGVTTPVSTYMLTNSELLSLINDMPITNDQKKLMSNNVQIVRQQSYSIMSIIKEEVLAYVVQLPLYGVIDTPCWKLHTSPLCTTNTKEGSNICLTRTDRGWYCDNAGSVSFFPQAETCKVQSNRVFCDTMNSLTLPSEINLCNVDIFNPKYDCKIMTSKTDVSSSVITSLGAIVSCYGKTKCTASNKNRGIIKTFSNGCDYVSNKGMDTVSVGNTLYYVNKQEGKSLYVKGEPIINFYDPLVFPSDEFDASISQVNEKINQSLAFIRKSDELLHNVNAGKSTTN

Binder | Kd [1] [nM] | koff [2] [s⁻¹] | kon [2] [M⁻¹ s⁻¹] | t1/2 (dissociation half-life) [2] [h] | Kd [3] [nM]
murine monoclonal antibody MAb 1308F (antibody, V domains shown, also called M1308F; Mu1308F) VH: EVQKQQSGAELVRPGALVKLSCKASGFNIKDYYIYWVKQRPEQGLEWIGWIDPENGNTVFDPLFQGKASITSDTSSNTAYLQLSSLTSEDTAVYYCAYYGTSSFDFWGQGTTLTVSS VL: DIKMTQSPSSMYVSLGERVTITCKASQDINRYLNWFQQKPGKSPKTLIHRANRLVDGVPSRFSGSGSGQEYSLTISSLEFEDMGIYYCLQFHEFPYTFGGGTKLEIL | 1.1 | 3.8e-05 | 35000 | 5.1 | –
humanized 1308F (CDR-grafted anti-RSV F antibody, human IgG1/kappa) (antibody, V domains shown, also called H1308F; Hu1308F) VH: QVQLVQSGAEVKKPGASVKVSCKASGFNIKDYYIYWVRQAPGQGLEWIGWIDPENGNTVFDPKFNGRVTMTRDTSTSTVYMELSSLRSEDTAVYYCAYYGTSSFDFWGQGTTLTVSS VL: DIQMTQSPSTLSASVGDRVTITCKASQDINRYLNWYQQKPGKAPKLLIYRANRLVDGVPSRFSGSGSGTEFTLTISSLQPDDFATYYCLQFHEFPYTFGGGTKLEIL | 2.5 | 5.5e-05 | 22000 | 3.5 | –
humanized 1129 (CDR-grafted anti-RSV F antibody, human IgG1/kappa) (antibody, V domains shown, also called H1129; Hu1129) VH: QVTLRESGPALVKPTQTLTLTCTFSGFSLSTSGMSVGWIRQPPGKALEWLADIWWDDKKDYNPSLKSRLTISKDTSKNQVVLKVTNMDPADTATYYCARSMITNWYFDVWGAGTTVTVSS VL: DIQMTQSPSTLSASVGDRVTITCKCQLSVGYMHWYQQKPGKAPKLWIYDTSKLASGVPSRFSGSGSGTEFTLTISSLQPDDFATYYCFQGSGYPFTFGGGTKLEIK | 1.4 | 6.9e-05 | 49000 | 2.8 | 0.7
murine monoclonal antibody MAb 1129 (antibody, V domains shown, also called M1129) VH: QVELQESGPGILQPSQTLSLTCSFSGFSLSTSGMSVGWIRQPSGEGLEWLADIWWDDKKDYNPSLKSRKTISKDTSSNQVFLKITGVDTADTATYYCARSMITNWYFDVWGAGTTVTVSS VL: DIQLTQSPAIMSASPGEKVTMTCSASSSVGYMHWYQQKSSTSPKLWIYDTSKLASGVPGRFSGSGSGNSYSLTISSIQAEDVATYYCFQGSGYPFTFGGGTKLEIK | 11.4 | 0.0004 | 35000 | 0.48 | –
